Assay [1] has as its target human 4-1BB expressed on cells (human) (UniProt Q07011). Description: flow cytometry on CHO-K1/hu4-1BB cells, anti-human Fc-Alexa Fluor 633. In general terms: In flow cytometry, cells or beads pass a laser one at a time.
The target in assay [2] is His-tagged cynomolgus 4-1BB protein (cynomolgus) (UniProt A9YYE7). Kind of assay: ELISA, coated His-tagged 4-1BB, anti-human IgG-HRP. Background: In an ELISA, binding on a coated surface is turned into a signal by an enzyme label.

Residue numbers refer to the chain shown, from its start.

Sequence of His-tagged cynomolgus 4-1BB protein (cynomolgus) (A9YYE7 entry or part of it): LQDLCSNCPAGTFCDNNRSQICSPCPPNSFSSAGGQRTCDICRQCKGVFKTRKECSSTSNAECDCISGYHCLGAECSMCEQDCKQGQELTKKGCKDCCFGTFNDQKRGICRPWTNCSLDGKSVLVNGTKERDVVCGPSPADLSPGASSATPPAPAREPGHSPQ
Sequence of human 4-1BB expressed on cells (human) (Q07011 24-255): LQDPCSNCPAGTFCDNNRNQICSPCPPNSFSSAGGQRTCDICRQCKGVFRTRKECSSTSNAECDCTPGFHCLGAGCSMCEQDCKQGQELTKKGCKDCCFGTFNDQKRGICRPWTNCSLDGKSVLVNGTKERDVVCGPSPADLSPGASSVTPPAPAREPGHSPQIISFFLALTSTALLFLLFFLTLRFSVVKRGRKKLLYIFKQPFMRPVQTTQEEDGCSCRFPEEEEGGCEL

B1: VV02-1SP (1)-73 huNb_1_1 (Fc fusion, not shown: a dimerising Fc or GST)
VHH: EVQLLESGGGLVQPGGSLRLSCAASGFTFSSSAMSWARQAPGKGLEWVSSIYSSGKTYYVESVKGRFTISRDNSKNTLYLQMNSLRAEDTAVYYCAKWKTLRVGVWDESDYWGQGTLVTVSS
In assay [1], B1 yielded a Max (MFI) of 233 MFI.

B2: VV02-1LP-288 (Fc fusion, not shown: a dimerising Fc or GST; small tags and cut ends)
VHH: EVQVVESGGGLVQPGGSLRLSCAASGSSLDYSAIGWFRQAPGKEREGVLCISSSGDVTIYADSVKGRFTISRDNAKNTVYLQMNSLKPEDTAVYYCVAPRICSTYSSDDYWGQGTQVTVSS
As to B2, the EC50 in assay [2] was > 30 nM.

B3: VV02-1LP-417 (Fc fusion, not shown: a dimerising Fc or GST; small tags and cut ends)
VHH: B2 VHH with E1Q, V2L, V4L, S27F, S28A
Regarding B3, in assay [2], the EC50 is > 30 nM.

Usually EC50 stands for the midpoint of the concentration-response curve. A low value points to an effect from little substance.

These data come from patent publication US20240383993A1.
